Results: publication PMC5663475, “SAV1 promotes Hippo kinase activation through antagonizing the PP2A phosphatase STRIPAK” (eLife, 2017)
Numbering of substitutions follows the chain as printed. Names may count otherwise. Non-standard residues stand in square brackets, D forms with d. No end group written: not given here. pT = C[C@@H](OP(=O)(O)O)[C@H](N)C(=O)O

B1: SAV1 E346A: SAV1 SARAH (residues 321–383) mutant (protein)
chain: ILKWELFQLADLDTYQGMLKLLFMKALEQIVKMYEAYRQALLTELENRKQRQQWYAQQHGKNF
modifications: not fully specified (N-terminus); also: 35S-methionine labelled, Myc tag, end not given here
notes: SAV1 SARAH (residues 321–383) mutant
B2: L365A: SAV1 SARAH (residues 321–383) mutant (protein, UniProt Q9H4B6 321-383, looked up, variant L365A)
chain: B1 chain with A26E, L45A
modifications: SARAH domain
notes: as for B1
B3: I350A: SAV1 SARAH (residues 321–383) mutant (protein, UniProt Q9H4B6 321-383, looked up, variant I350A)
chain: B1 chain with A26E, I30A
modifications: SARAH domain
notes: as for B1
B4: L361A: SAV1 SARAH (residues 321–383) mutant (protein, UniProt Q9H4B6 321-383, looked up, variant L361A)
chain: B1 chain with A26E, L41A
modifications: SARAH domain
notes: as for B1
B5: R368A: SAV1 SARAH (residues 321–383) mutant (protein, UniProt Q9H4B6 321-383, looked up, variant R368A)
chain: B1 chain with A26E, R48A
modifications: SARAH domain
notes: as for B1
B6: Y357A: SAV1 SARAH (residues 321–383) mutant (protein, UniProt Q9H4B6 321-383, looked up, variant Y357A)
chain: B1 chain with A26E, Y37A
modifications: SARAH domain
notes: as for B1
B7: SAV1 ∆N268: SAV1 SARAH alone (protein, UniProt Q9H4B6 269-383, looked up, fragment)
chain: SVPRYDQPPPVTYQPQQTERNQSLLVPANPYHTAEIPDWLQVYARAPVKYDHILKWELFQLADLDTYQGMLKLLFMKELEQIVKMYEAYRQALLTELENRKQRQQWYAQQHGKNF
B8: pT336-MST2^331-340 (peptide)
peptide: VESVG[pT]MRAT
notes: MST2, human, linker residues 331-340; source: synthetic peptide
B9: pT378-MST2^371-401 (peptide)
peptide: DEEEEDG[pT]MKRNATSPQVQRPSFMDYFDKQD
notes: MST2, human, linker residues 371-401; source: synthetic peptide
B10: pT325-MST2^320-329 (peptide)
peptide: ELDSH[pT]MVKT
notes: MST2, human, linker residues 320-329; source: synthetic peptide
B11: pT378-MST2^373-382 (peptide)
peptide: EEEDG[pT]MKRN
notes: MST2, human, linker residues 373-382; also called pMST2; source: synthetic peptide

Legend:
MCF10A cells = experiment: Immunoblot of Hippo pathway phosphorylation after latrunculin B treatment; assay type: cell-based, human; conditions: LatB 1 μg/ml, 1 hr
Procedure: 293FT cells (Thermo Scientific, catalogue #R70007; not independently authenticated) were cultured in DMEM supplemented with 10% fetal bovine serum, 2 mM L-glutamine and 1% penicillin/streptomycin. MCF10A cells (ATCC, catalogue #CRL-10317; not independently authenticated) were cultured in DMEM/F12 containing 5% horse serum, 20 ng/ml EGF, 0.5 μg/ml hydrocortisone, 100 ng/ml cholera toxin, 10 μg/ml insulin and 1% penicillin/streptomycin. All cells were incubated at 37°C in a humidified 5% CO2 atmosphere. All cell lines were checked by 4’,6-diamidino-2-phenylindole (DAPI) staining to ascertain that they were free of mycoplasma contamination. Transient transfection of 293FT cells was performed with Lipojet (Signagen). Cells were collected for further experiments after 24 hr. siRNA transfection was performed with Lipofectamine RNAiMAX (Invitrogen, Waltham, MA) according to manufacturer’s instructions. The following siRNAs were synthesized by Dharmacon and used in this study: siSLMAP #1, […]dTdT; siSLMAP #2, […]dTdT; siSTRIP1, […]dTdT.
Rabbit polyclonal MST2 phospho-T336 antibody was raised against the MST2 phospho-peptide with the sequence of ESVGpTMRATC at an on-campus facility. Generation of the MST2 phospho-T378 antibody was described previously ([Ni et al., 2015]). […] For immunoblotting, cell lysates and immunoprecipitates were analyzed by standard immunoblotting. The membranes were scanned and band intensities were quantified by the Odyssey Infrared Imaging System (LI-COR). […] We quantified phospho- and total protein bands in a set of three independent experiments. […] The ratios of normalized phospho-proteins versus normalized total proteins were calculated and plotted. […]

MST2 SARAH = experiment: In vitro pull-down of 35S-labeled SAV1 SARAH by GST-MST2 SARAH; assay type: binding, human; conditions: GST-MST2 SARAH pull-down of in vitro translated 35S-labeled Myc-SAV1 SARAH (residues 321–383), SDS-PAGE, autoradiography
Procedure: To assay the heterodimerization of SARAH domains between MST2 and SAV1, Myc-tagged SAV1 SARAH (residues 321–383) and the corresponding mutants were in vitro translated in reticulocyte lysate in the presence of ^35S-methionine according to the manufacturer’s protocol (Pierce). Purified GST-MST2 SARAH (residues 430–491) fusion protein was bound to glutathione-Sepharose beads and incubated with ^35S-labeled SAV1 SARAH WT and mutants. The beads were washed three times with TBS containing 0.05% (v/v) Tween. The proteins retained on the beads were analyzed by SDS-PAGE followed by autoradiography.

MST2 = experiment: MST2-SAV1 autophosphorylation (pT180); assay type: biochemical, human; conditions: 2.5 µM MST2-SAV1 complex, dephosphorylated by 0.5 µM PP2A A-C, then 5 µM okadaic acid; 2 mM ATP, anti-pT180 blot; at least two independent experiments
Procedure: For assaying MST2-SAV1 autophosphorylation, 2.5 µM MST2-SAV1-ΔN198 or MST2-SAV1-ΔN268 was dephosphorylated by 0.5 µM PP2A A-C core complex for 30 min at room temperature. Okadaic acid was then added to a final concentration of 5 µM and the reaction mixture was incubated on ice for another 30 min. The reaction mixture was diluted by a ratio of 1:5 at room temperature with a kinase reaction buffer containing 50 mM Tris (pH 7.5), 150 mM NaCl, 5 mM MgCl2, 2 mM ATP, and 1 mM DTT. At different time intervals, autophosphorylation was terminated by adding 2X SDS loading buffer and boiling for 5 min in 100 °C water bath. All samples were separated by SDS-PAGE and blotted by a specific antibody against pT180 of MST2.

[1] = molecular target: T1, SLMAP FHA (residues 1–140) (human, UniProt Q14BN4 1-140); experiment: ITC; MicroCal iTC200, 20 °C; 50 µM protein in the cell titrated with 500 µM phospho-peptide; 20 mM Tris pH 8.0, 50 mM NaCl (5% DMSO for pT325-MST2 320-329); A + B <-> AB model; conditions: both partners purified
T1 construct: SLMAP, human, FHA domain, residues 1-140; also called SLMAP FHA domain; apo-SLMAP FHA; source: E. coli BL21 (DE3)-T1R, purified (glutathione-Sepharose, TEV cleavage, Superdex 75); not shown: GST, N-terminal, cleaved
T1 sequence (looked up): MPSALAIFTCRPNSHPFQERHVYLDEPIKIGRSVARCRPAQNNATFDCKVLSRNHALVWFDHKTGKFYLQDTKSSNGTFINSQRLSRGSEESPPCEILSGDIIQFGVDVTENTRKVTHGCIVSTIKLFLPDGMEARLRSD

MOB1^33-216 (human) = MOB1^33-216 (human) (UniProt Q9H8S9); experiment: as above
SLMAP FHA/R32A = molecular target: T2, SLMAP FHA/R32A (human, UniProt Q14BN4 1-140, R32A); experiment: as above; conditions: both partners purified
T2 construct: SLMAP, human, FHA domain, residues 1-140, R32A; also called SLMAP FHA/R32A mutant; source: E. coli BL21 (DE3)-T1R, purified (glutathione-Sepharose, TEV cleavage, Superdex 75); not shown: GST, N-terminal, cleaved
T2 sequence (looked up): T1 sequence (looked up) with R32A

| Molecule | binding of SAV1 SARAH mutant to MST2 (MST2 SARAH) | Kd [1] | dH [1] | also measured |
| --- | --- | --- | --- | --- |
| C/C1=C/C(=O)O[C@@H]2C[C@@H](CC[C@H](C)/C=C\CC1)O[C@@](O)([C@@H]1CSC(=O)N1)C2 [LatB, Latrunculin B] |  |  |  | MOB1 T35 phosphorylation (MCF10A cells): induced; MST1/2 T-loop phosphorylation (MCF10A cells): induced; downstream phosphorylation of LATS1/2 and YAP (MCF10A cells): induced |
| B1 | completely lost the binding to MST2 |  |  |  |
| B2 | completely lost the binding to MST2 |  |  |  |
| B3 | completely lost the binding to MST2 |  |  |  |
| B4 | completely lost the binding to MST2 |  |  |  |
| B5 | completely lost the binding to MST2 |  |  |  |
| B6 | completely lost the binding to MST2 |  |  |  |
| B7 |  |  |  | MST2 activation (T180 autophosphorylation) in vitro (MST2): blocked MST2 activation in vitro |
| B8 |  | 1140 nM | -8.2 kcal/mol |  |
| B9 |  | 393 nM | -9.5 kcal/mol | dH (MOB1^33-216 (human)): -13.5 kcal/mol |
| B10 |  | 392 nM | -10.3 kcal/mol |  |
| B11 |  | 160 nM | -9 kcal/mol | dH (MOB1^33-216 (human)): -4 kcal/mol; Kd (SLMAP FHA/R32A): 18800 nM; dH (SLMAP FHA/R32A): -6.7 kcal/mol |
